Reference: the nanobody polyreactivity screen of Harvey et al. (2022)

Assay: yeast display, Sf9 membrane polyspecificity reagent, FACS + sequencing; frameworks hold sequencing errors
Outline: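 Using colony PCR, genes from sorted yeast display clones were amplified, then sequenced on MiSeq at 2 × 250 and filtered by CDR length. The clones had been stained with 10% biotinylated, detergent-solubilized Sf9 membrane reagent for 1 hour at 4 °C and sorted by FACS into low and high (top ~1%) gates on anti-HA and streptavidin fluorescence. Polyreactivity labels come from the gate of origin.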

| Sequence | polyreactivity (PSR sort gate) |
| --- | --- |
| QVQLVESGGGLVQAGGSLRLSCAASGFIFSYYAMGWYRQAPGKERELVADITSGGSTNYADSVKGRFTISRDNAKNTVYLQMNSLKPEDTAVYYCAATGLPGYYAYDYWGQGTQVTVTS | low polyreactivity |
| QVQLVESGGGLVQAGGSLRLSCAASGFIFSYYAMGWYRQAPGKERELVATINFSGGRTYYADSVKGRFTISRDNEKNTVYLQMNSLKPEDTAVYYCAASFYSYTSRYPDYYYWGQGTQVTVSS | high polyreactivity |
| QVQLVESGGGLVQAGGSLRLSCAASGFIFSYYTMGWYRQAPGKERELVAAISRNGGSTYYADSVKGRFTISRDNAKNTVYLQMNSLKPEDTAVYYCAKRVFNYQRYDYWGQGTQVSVSS | high polyreactivity |
| QVQLVESGGGLVQAGGSLRLSCAASGFIFSYYVMGWYREAPGKERELVAAISWNGGSTFYADSVKGRFTISRDNAKNSVYLQMNSLKPEDTAVYYCAAYPRFYGGKYGEYGYWGQGTQVTVSS | high polyreactivity |
| QVQLVESGGGLVQAGGSLRLSCAASGFIFSYYVMGWYRQAPGKERELVAAINESGGRTYYADSVKGRFTISRDNAKNTVYLQMNSLKQEDTAVYYCAASVLNKIQGYRDYYWGQGTKVTVSS | low polyreactivity |
| QVQLVESGGGLVQAGGSLRLSCAASGFIFTANAMGWYRQAPGKERELVAAINWSDGGTYYADSVKGRFTISRDNAKNTVYLQMNSLKPEDTAVYYCNAQWAWTYYYWGQGTQVTVSS | low polyreactivity |
| QVQLVESGGGLVQAGGSLRLSCAASGFIFTDNAMGWYRQAPGKERELVAAISKNGGSTYYADSVKGRFTISRDNAKNTVYLQMNSLKQEDTAVYYCNTRRKNFVKSSQVEYWGQGTQVTVSS | high polyreactivity |
| QVQLVESGGGLVQAGGSLRLSCAASGFIFTDYAMGWYRQATGQEREFVAAIDWSGGNTYYADSVKGRFTISRDNAKNTVYLQLNSLKPEDTAVFFCSASGSAREYDYWGQGTQVTVSS | low polyreactivity |
| QVQLVESGGGLVQAGGSLRLSCAASGFIFTGYAMGWYRQAPGKERELVAAISSSGGRTYYADSVKGRFTISRDNAKNTVYLQMNSLKPEDTAVYYCAAYYITFIGRGYGYWGQGTQVTVSS | high polyreactivity |
| QVQLVESGGGLVQAGGSLRLSCAASGFIFTIYALGWYRQAPGKERELVAAIDSSGTTYYADSVKGRFTISRDNAKNTVYLQMNSLKPEDTAVYYCNTDIYVQYGWGQGTQVTVSS | low polyreactivity |
| QVQLVESGGGLVQAGGSLRLSCAASGFIFTIYAMGWYRQAPGKERELVAAITWNGGRTYYADSVKGRFTISRDNAKNTVDLQMNSLKPEDTAVYYCAARYGRAYDYWGQGSQVTVSS | high polyreactivity |
| QVQLVESGGGLVQAGGSLRLSCAASGFIFTKYSMGWYRQAPGKERELVAAIRGSGGSTYYADSVKGRFTISRDIAKNSVYLQMNSLKPEDTAVYYCAAERSLGYDYWGQGTQVTVSS | high polyreactivity |
| QVQLVESGGGLVQAGGSLRLSCAASGFIFTPNAMGWYRQAPGKERELVATISWRGTGTYYADSVKGRFTISRDTAKNTVYLQMNSLNPVDTAVYYCAVRFYSFHYYRIYTYSVTYDYWGQGTQVTVSS | high polyreactivity |
| QVQLVESGGGLVQAGGSLRLSCAASGFIFTPYAMGWYRQAPGKERELVAAITWRGARTYYADSVKGRFTISRDNAKNTVYLQMNSLKPEDTAVYYCATTFTGYNKEFGYWGQGTQVTVSS | high polyreactivity |
| QVQLVESGGGLVQAGGSLRLSCAASGFIFTQNAMGWYRQAPGKERELVAVIRWNGGSTYYADSVKGRITISRDNAKNTVYLQMNSLKREDTAVYYCAAEFLWIVDYWGQGTQVTVSS | low polyreactivity |
| QVQLVESGGGLVQAGGSLRLSCAASGFIFTQNGMGWYRQAPGKERELVAAISWSAGGTYYADSVKGRFTISRDNAKNTVYLQMNSLKPEDTAVYYCNARVYNVFREFNSWGQGTQVTVSS | low polyreactivity |
| QVQLVESGGGLVQAGGSLRLSCAASGFIFTQYAMGWYRQSPGKERELVAGITSSGNTYYADSVKGRFTISRDNAKNTVYLQMNSLKPEDTAVYYCAARSYVRRFDGGYWGQGTQVTVSS | high polyreactivity |
| QVQLVESGGGLVQAGGSLRLSCAASGFIFTRNVMGWYRQAPGKEMELVASISKSSGSTYYADSVKGRFTISRDNAKNTVYLQMNSLNPEDTAVYYCATYAKQLSPYYYWGQGIQVTVSS | high polyreactivity |
| QVQLVESGGGLVQAGGSLRLSCAASGFIFTRYAMGWYRQAPGKEREFVARIDSSGGSTYYADSVKGRFTISRDNAKNTVYLQMNSLKPEDTAVYYCAAVGYRFGSYYWGQGTKVTVSS | high polyreactivity |
| QVQLVESGGGLVQAGGSLRLSCAASGFIFTRYAMGWYRQAPGKERELVAVITSSGGTYYADSVKGRFTISRDNAKNSVYLQMNSLKPEDTAVYYCNADFYRVAYLRRYSHFDYWGQGTQVTVSS | high polyreactivity |
| QVQLVESGGGLVQAGGSLRLSCAASGFIFTSYAMAWYRQAPGKERELVAAIDYSGGSTYYADSVKGRFTISRDNAKNTVYLQINSLKPEDTAVYYCSAGEGLWPGSQTYDYWGQATQVTVSS | low polyreactivity |
